The target of test [1] is alpha PDGF receptor on 32D cells expressing only the alpha receptor (UniProt P16234). Description: competition of unlabeled PDGF DD with ^125I-PDGF AA on 32D alpha receptor bearing cells.
The target in test [2] is beta PDGF receptor on HR5βR cells expressing only the beta receptor (UniProt P09619). Briefly: cell-based or functional assay.
The target in test [3] is human beta PDGF receptor on human cells that carry both receptors (CCD1070 fibroblasts, MG-63 cells) (human) (UniProt P09619). Briefly: two-site ELISA for alpha-beta PDGF receptor heterodimers: capture with anti-beta PDGF receptor mAb, detection with polyclonal anti-alpha PDGF receptor; MG-63 lysates after PDGF DD 100 ng/mL, 10 min. (In an ELISA, binding on a coated surface is turned into a signal by an enzyme label.)

The target is the same in test [4]. Description: two-site ELISA for alpha-beta PDGF receptor heterodimers: capture with anti-beta PDGF receptor mAb, detection with polyclonal anti-alpha PDGF receptor; MG-63 lysates after PDGF BB 10 ng/mL, 10 min.
The target of another test is PDGF AA (human) (UniProt P04085). Description: cell-based or functional assay.
Test [5] concerns the target PDGF DD p35 (p35 form of the 30664188 gene product, dimeric C-terminal fragment) (human). Briefly: cell-based or functional assay.

human beta PDGF receptor on human cells that carry both receptors (CCD1070 fibroblasts, MG-63 cells) (human), sequence (P09619 33-1106): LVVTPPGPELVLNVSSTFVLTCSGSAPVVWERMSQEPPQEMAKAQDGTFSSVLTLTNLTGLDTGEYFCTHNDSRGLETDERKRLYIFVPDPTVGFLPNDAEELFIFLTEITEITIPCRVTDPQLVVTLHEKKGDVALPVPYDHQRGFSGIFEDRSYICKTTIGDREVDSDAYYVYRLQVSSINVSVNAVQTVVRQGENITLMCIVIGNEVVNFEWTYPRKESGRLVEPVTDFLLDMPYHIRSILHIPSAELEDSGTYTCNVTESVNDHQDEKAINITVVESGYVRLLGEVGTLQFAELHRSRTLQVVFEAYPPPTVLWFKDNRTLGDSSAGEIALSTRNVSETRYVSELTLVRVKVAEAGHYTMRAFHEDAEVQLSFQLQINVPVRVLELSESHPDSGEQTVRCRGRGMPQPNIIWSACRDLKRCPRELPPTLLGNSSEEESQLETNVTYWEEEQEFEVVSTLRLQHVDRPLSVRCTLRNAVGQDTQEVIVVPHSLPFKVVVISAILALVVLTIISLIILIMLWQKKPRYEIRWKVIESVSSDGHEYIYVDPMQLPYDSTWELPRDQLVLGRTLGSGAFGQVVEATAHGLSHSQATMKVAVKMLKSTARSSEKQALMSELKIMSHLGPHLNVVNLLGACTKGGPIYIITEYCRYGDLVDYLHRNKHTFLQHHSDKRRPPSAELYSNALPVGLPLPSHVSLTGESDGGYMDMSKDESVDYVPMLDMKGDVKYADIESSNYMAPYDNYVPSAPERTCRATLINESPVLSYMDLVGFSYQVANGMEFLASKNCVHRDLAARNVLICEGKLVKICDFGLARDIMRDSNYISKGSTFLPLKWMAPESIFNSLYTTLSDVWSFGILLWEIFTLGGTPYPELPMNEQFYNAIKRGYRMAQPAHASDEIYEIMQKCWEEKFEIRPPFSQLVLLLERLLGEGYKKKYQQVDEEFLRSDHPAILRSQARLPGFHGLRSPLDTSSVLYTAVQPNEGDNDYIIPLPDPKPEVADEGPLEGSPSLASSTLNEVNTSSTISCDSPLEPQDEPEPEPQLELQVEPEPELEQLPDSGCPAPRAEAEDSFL
beta PDGF receptor on HR5βR cells expressing only the beta receptor, sequence (P09619 33-1106 limits assumed): as the sequence (P09619 33-1106) above
alpha PDGF receptor on 32D cells expressing only the alpha receptor, sequence (P16234 24-1089): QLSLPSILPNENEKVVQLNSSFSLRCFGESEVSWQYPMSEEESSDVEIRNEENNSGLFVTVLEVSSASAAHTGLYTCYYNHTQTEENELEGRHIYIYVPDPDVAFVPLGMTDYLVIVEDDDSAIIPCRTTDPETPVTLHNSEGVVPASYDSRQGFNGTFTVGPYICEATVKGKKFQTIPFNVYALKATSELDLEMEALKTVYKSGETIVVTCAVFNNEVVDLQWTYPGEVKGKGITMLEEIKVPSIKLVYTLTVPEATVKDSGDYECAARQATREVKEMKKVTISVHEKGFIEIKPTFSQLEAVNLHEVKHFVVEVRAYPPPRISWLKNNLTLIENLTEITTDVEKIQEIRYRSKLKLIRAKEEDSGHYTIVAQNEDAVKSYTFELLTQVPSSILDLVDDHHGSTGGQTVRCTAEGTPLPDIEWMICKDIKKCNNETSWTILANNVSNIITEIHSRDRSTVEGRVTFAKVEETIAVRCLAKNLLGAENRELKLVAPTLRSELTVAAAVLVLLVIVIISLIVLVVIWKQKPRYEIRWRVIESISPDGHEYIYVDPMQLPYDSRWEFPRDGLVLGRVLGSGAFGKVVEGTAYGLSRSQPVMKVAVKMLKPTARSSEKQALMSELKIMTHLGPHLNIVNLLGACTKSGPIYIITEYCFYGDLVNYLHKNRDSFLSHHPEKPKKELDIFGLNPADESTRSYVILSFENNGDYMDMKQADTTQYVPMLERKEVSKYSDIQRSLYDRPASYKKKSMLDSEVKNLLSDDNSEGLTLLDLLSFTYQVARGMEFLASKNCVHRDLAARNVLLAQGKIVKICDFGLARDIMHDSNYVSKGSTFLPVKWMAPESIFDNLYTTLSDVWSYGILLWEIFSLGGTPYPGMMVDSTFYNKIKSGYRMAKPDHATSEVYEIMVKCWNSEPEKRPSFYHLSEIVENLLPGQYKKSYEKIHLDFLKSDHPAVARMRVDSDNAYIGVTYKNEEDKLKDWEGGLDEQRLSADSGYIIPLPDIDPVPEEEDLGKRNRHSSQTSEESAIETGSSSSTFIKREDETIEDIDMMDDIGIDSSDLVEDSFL

In the case of “PDGF DD p35 (p35 form of the 30664188 gene product, dimeric C-terminal fragment) (ligand)”, in test [1], the highest competitor concentration tested, no competition seen was > 250 nM. This substance registered a lowest concentration at which beta PDGF receptor phosphorylation was detected, HR5 cells in test [2] of 10 ng/mL.
Turning to “human alpha PDGF receptor on human cells that carry both receptors (CCD1070 fibroblasts, MG-63 cells) (from UniProt P16234 24-1089)”, the Increase mODmin^-1 (650) (mODmin^-1 (650)) in test [3] came out at 12.5; in test [4], 2.3.
As for “soluble beta PDGF receptor-IgFc fusion (R&D Systems) (from UniProt P09619 33-530)”, in the test with PDGF AA (human), the BrdU incorporation OD-blank, CCD1070 cells, AA + betaR Fc (AA alone 0.2705; + MOPC21 0.227) worked out at 0.248 OD-blank and the BrdU incorporation OD-blank, NIH/3T3 cells, AA + betaR Fc (AA alone 0.931; + MOPC21 0.992) came to 0.942 OD-blank. In test [5], the BrdU incorporation OD-blank, CCD1070 cells, 3066 + betaR Fc (3066 alone 0.501; + MOPC21 0.456; starve 0.0303) was 0.324 OD-blank and the BrdU incorporation OD-blank, NIH/3T3 cells, 3066 + betaR Fc (3066 alone 0.902; + MOPC21 0.892; starve 0.0055) turned out to be 0.0365 OD-blank.
